Key:
[1] = molecular target: T1, Human BCMA (ACRO biosystems, BCA-H522y) (human, UniProt Q02223 1-54); assay: ELISA, plate coated with human BCMA at 2 µg/mL, HRP-goat anti-human IgG, OD450
T1 construct: Bought protein; also called human BCMA protein; BCMA antigen
T1 sequence (looked up): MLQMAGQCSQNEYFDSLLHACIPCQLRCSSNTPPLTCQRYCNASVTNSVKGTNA
Procedure: (§1) Human BCMA (ACRO biosystems, BCA-H522y) or human CD16A antigen (ACRO biosystems, CDD-H52W1) was diluted to 2 μg/mL with the coating buffer (35 mM NaHCO₃, 15 mM Na₂CO₃, pH 9.6). 100 μL of the diluted solution was added to each well of the enzyme-linked plate and incubated overnight at 4° C. Then, the plate was washed three times with PBST (0.05% Tween 20-PBS, pH 7.2). 300 μL of blocking buffer (1% BSA, 0.05% Tween20-PBS, pH 7.2) was added to the plate and left to stand at room temperature for 2 hours. The plate was washed three times with PBST again. The corresponding bispecific antibody or the control antibody hIgG1 was added to each well and incubated at room temperature for 1 hour. The precipitate was washed three times with PBST. 100 μL of HRP-goat anti-human IgG secondary antibody (Jackson ImmunoResearch, 109-036-170) diluted with the blocking buffer was added to each well and incubated at room temperature for 1 hour. The plate was washed three times with PBST. TMB was added to each well. A reaction was performed at room temperature in the dark for 2 min to 5 min. The reaction was terminated by adding 2 M sulfuric acid to each well. OD450 values were read using a microplate reader.

[2] = molecular target: T2, human CD16A antigen (ACRO biosystems, CDD-H52W1) (human, UniProt P08637 17-208, limits assumed); assay: ELISA, plate coated with human CD16A at 2 µg/mL, HRP-goat anti-human IgG, OD450
T2 construct: Bought protein; also called human CD16A protein
T2 sequence (P08637 17-208 limits assumed): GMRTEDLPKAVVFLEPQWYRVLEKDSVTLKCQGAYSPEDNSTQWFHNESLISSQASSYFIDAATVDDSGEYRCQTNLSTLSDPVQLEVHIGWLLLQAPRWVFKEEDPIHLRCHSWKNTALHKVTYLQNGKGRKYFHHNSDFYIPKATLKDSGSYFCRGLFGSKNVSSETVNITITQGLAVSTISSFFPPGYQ
Procedure: as §1

[3] = molecular target: T3, human CD16B^NA1 (ACRO biosystems, CDB-H5227) (human, UniProt O75015 17-200, limits assumed); assay: ELISA, plate coated with human CD16B^NA1 at 2 µg/mL, HRP-goat anti-mouse IgG, OD450
T3 construct: Bought protein; NA1 polymorphic form; also called human CD16B^NA1 protein
T3 sequence (O75015 other isoform, or with tags, fused parts or gaps limits assumed): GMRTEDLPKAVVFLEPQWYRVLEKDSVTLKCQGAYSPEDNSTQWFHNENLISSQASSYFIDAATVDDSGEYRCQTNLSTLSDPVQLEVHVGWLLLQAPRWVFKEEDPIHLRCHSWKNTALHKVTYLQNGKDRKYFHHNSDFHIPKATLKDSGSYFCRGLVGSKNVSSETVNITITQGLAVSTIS
Procedure: (§2) The ELISA experiment was performed to detect the binding properties of the murine CD16A antibody m40F5 obtained in Example 1. […] Then, the plate was then washed three times with PBST (0.05% Tween 20-PBS, pH 7.2). 300 μL of blocking buffer (1% BSA, 0.05% Tween20-PBS, pH 7.2) was added to the plate and left to stand at room temperature for 2 hours. Then, the plate was washed again three times with PBST. Murine antibody m40F5 or control antibody LS21 (WO2006/125668 EN) was added to each well and incubated at room temperature for 1 hour.
(§3) Again, the plate was washed three times with PBST. 100 μL of HRP-goat anti-mouse IgG secondary antibody (boster, Catalog No. BA1051) diluted with the blocking buffer was added to each well and incubated at room temperature for 1 hour. The plate was washed three times with PBST. TMB was added to each well. A reaction was performed at room temperature in the dark for 2 min to 5 min. The reaction was terminated with 2 M sulfuric acid. OD450 values were read using a microplate reader.

[4] = molecular target: T4, human CD16A^158F (ACRO biosystems, CDA-H5220) (human, UniProt P08637 17-208); assay: ELISA, plate coated with human CD16A^158F at 2 µg/mL, HRP-goat anti-mouse IgG, OD450
T4 construct: extracellular domain; Bought protein; also called human CD16A extracellular segment protein
T4 sequence (P08637 17-208): as the sequence (P08637 17-208 limits assumed) above
Procedure: as §2, §3

[5] = molecular target: T5, human CD16B^SH (Sino Biological, 11046-H08H2) (human, UniProt O75015 17-200); assay: ELISA, plate coated with human CD16B^SH at 2 µg/mL, HRP-goat anti-mouse IgG, OD450
T5 construct: Bought protein; SH polymorphic form; also called human CD16B^SH protein
T5 sequence (O75015 17-200 N65S/A78D limits assumed): as the sequence (O75015 other isoform, or with tags, fused parts or gaps limits assumed) above, with R20S, N49S, A62D, D66N, V90I counted along it
Procedure: as §2, §3

[6] = molecular target: T6, cynomolgus monkey CD16 protein on CHO-K1 cells overexpressing cynomolgus monkey CD16 (cynomolgus monkey, UniProt Q8SPW2 17-254); assay: Flow cytometry on CHO-K1 cells overexpressing cynomolgus monkey CD16, Alexa-647 goat anti-mouse secondary antibody, binding proportion (%)
T6 construct: also called CHO cell overexpressing a cynomolgus monkey CD16A protein; monkey CD16A protein
T6 sequence (Q8SPW2 17-254 limits assumed): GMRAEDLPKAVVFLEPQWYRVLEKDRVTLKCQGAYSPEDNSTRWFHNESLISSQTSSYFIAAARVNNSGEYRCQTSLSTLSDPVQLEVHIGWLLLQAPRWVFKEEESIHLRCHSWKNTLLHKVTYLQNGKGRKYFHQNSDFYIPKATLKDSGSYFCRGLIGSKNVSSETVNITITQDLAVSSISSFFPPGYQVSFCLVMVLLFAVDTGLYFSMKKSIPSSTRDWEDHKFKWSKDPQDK
Procedure: (§4) The CHO-K1 cells overexpressing human CD16A or CHO-K1 cells overexpressing cynomolgus monkey CD16 obtained in Example 1 were diluted to 2×10⁶/mL with PBS and added to a 1.5 mL EP tube at a volume of 100 μL/tube. Then, 10 μL of goat serum was added to each tube. The mixture was blocked at 4° C. for 30 min. The CD16A antibody and the control antibody mlgG at gradient concentrations (5-fold serial dilution, with the highest final concentration of 10 μg/mL) were added and incubated at 4° C. for 30 minutes. Each EP tube was filled with 1 mL of PBS and centrifuged at 3,500 rpm for 5 min at 4° C. The supernatant was completely discarded, and the cells were washed once again with PBS. After another centrifugation, the supernatant was completely discarded. The cells were resuspended in 100 μL/tube of PBS. Alexa-647-conjugated goat anti-murine antibody secondary antibody (Invitrogen) was added at […]. The cells were incubated at 4° C. in the dark for 30 min, and were washed twice with PBS and centrifuged. Then, the supernatant was completely discarded. The cells were resuspended in 200 μL/tube of PBS and detected using a flow cytometer.

[7] = molecular target: T7, human CD16B^NA2 (ACRO biosystems, CDB-H5222) (human, UniProt O75015 17-200); assay: ELISA, plate coated with human CD16B^NA2 at 2 µg/mL, HRP-goat anti-mouse IgG, OD450
T7 construct: Bought protein; NA2 polymorphic form; also called human CD16B^NA2 protein
T7 sequence (O75015 17-200 N65S limits assumed): as the sequence (O75015 other isoform, or with tags, fused parts or gaps limits assumed) above, with R20S, N49S, D66N, V90I counted along it
Procedure: as §2, §3

[8] = molecular target: T8, human CD16A^158V (ACRO biosystems, CD8-H52H4) (human, UniProt P08637 17-208); assay: ELISA, plate coated with human CD16A^158V at 2 µg/mL, HRP-goat anti-mouse IgG, OD450
T8 construct: Bought protein; It is the 158V polymorphic form; also called human CD16A^158V protein
T8 sequence (P08637 17-208 F176V limits assumed): as the sequence (P08637 17-208 limits assumed) above, with F160V counted along it
Procedure: as §2, §3

[9] = molecular target: T9, human CD16A protein on CHO-K1 cells overexpressing human CD16A (human, UniProt P08637 17-254); assay: Flow cytometry on CHO-K1 cells overexpressing human CD16A, Alexa-647 goat anti-mouse secondary antibody, binding proportion (%)
T9 construct: also called CHO cell overexpressing a human CD16A protein
T9 sequence (P08637 17-254 limits assumed): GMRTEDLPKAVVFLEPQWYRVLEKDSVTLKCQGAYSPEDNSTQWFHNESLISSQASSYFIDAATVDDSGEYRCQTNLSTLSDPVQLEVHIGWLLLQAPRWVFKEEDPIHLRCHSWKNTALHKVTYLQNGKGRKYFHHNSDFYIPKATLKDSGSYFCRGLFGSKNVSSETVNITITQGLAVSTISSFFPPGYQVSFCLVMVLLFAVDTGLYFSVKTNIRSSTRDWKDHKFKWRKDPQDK
Procedure: as §4

[10] = molecular target: T10, cynomolgus monkey CD16 (ACRO biosystems, FC6-C52H9) (cynomolgus monkey, UniProt Q8SPW2 17-208); assay: ELISA, plate coated with cynomolgus monkey CD16 at 2 µg/mL, HRP-goat anti-mouse IgG, OD450
T10 construct: Bought protein; also called monkey CD16 protein; monkey CD16 antigen
T10 sequence (Q8SPW2 17-208 limits assumed): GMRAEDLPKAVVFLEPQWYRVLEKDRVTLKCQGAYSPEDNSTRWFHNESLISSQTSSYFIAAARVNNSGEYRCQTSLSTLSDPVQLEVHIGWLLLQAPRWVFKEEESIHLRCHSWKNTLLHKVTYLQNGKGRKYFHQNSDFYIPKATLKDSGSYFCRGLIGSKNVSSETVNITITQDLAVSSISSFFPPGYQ
Procedure: as §2, §3

[11] = molecular target: T11, Human B7H6 (ACRO biosystems, B76-H52H8) (human, UniProt Q68D85 25-262); assay: ELISA, plate coated with human B7H6 at 2 µg/mL, HRP-goat anti-human IgG, OD450
T11 construct: Bought protein; also called human B7H6 protein; B7H6 antigen
T11 sequence (looked up): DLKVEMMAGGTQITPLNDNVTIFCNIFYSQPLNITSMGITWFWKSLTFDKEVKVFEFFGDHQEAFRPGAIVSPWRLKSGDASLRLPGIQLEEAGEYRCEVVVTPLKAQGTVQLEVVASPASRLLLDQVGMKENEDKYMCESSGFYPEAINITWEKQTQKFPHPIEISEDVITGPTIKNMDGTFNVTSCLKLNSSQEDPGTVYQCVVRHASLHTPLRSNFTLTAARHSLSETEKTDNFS
Procedure: (§5) Human B7H6 (ACRO biosystems, B76-H52H8) or human CD16A antigen (ACRO biosystems, Catalog No. CDA-H5220) was diluted to 2 μg/mL with the coating buffer (35 mM NaHCO₃, 15 mM Na₂CO₃, pH 9.6). 100 μL of the diluted solution was added to each well of the enzyme-linked plate and incubated overnight at 4° C. Then, the plate was washed three times with PBST (0.05% Tween 20-PBS, pH 7.2). 300 μL of blocking buffer (1% BSA, 0.05% Tween20-PBS, pH 7.2) was added to the plate and left to stand at room temperature for 2 hours. The plate was washed three times with PBST again. The corresponding bispecific antibody or control antibody hIgG was added to each well and incubated at room temperature for 1 hour. Again, the plate was washed three times with PBST. 100 μL of HRP-goat anti-human IgG secondary antibody (Jackson ImmunoResearch, 109-036-170) diluted with the blocking buffer was added to each well and incubated at room temperature for 1 hour. After incubation, the precipitate was washed three times with PBST. TMB was added to each well. A reaction was performed at room temperature in the dark for 2 min to 5 min. The reaction was terminated by adding 2 M sulfuric acid to each well. OD450 values were read using a microplate reader.

[12] = molecular target: T4, human CD16A^158F (ACRO biosystems, …); assay: ELISA, plate coated with human CD16A at 2 µg/mL, HRP-goat anti-human IgG, OD450
Procedure: as §5

B1: bispecific antibody CD16A×BCMA (bispecific antibody, human IgG1, L234A L235A)
chain 1: not shown
chain 2: DIQMTQSPSSLSASVGDRVTITCSASQDISNYLNWYQQKPGKAPKLLIYYTSNLHSGVPSRFSGSGSGTDFTLTISSLQPEDFATYYCQQYRKLPWTFGQGTKLEIKRGGGGSGGGGSGGGGSQVQLVQSGAEVKKPGSSVKVSCKASGGTFSNYWMHWVRQAPGQGLEWMGATYRGHSDTYYNQKFKGRVTITADKSTSTAYMELSSLRSEDTAVYYCARGAIYDGYDVLDNWGQGTLVTVSSEPKSCDKTHTCPPCPAPEAAGGPSVFLFPPKPKDTLMISRTPEVTCVVVDVSHEDPEVKFNWYVDGVEVHNAKTKPREEQYNSTYRVVSVLTVLHQDWLNGKEYKCKVSNKALPAPIEKTISKAKGQPREPQVCTLPPSREEMTKNQVSLSCAVKGFYPSDIAVEWESNGQPENNYKTTPPVLDSDGSFFLVSKLTVDKSRWQQGNVFSCSVMHEALHNHYTQKSLSLSPGK
notes: also called CD16A×BCMA bispecific antibody
[1]
  EC50 (read off the curve): ~6 ng/mL
[2]
  EC50 (read off the curve): ~40 ng/mL

B2: murine CD16A antibody m40F5 (antibody, mouse IgG2a, kappa)
heavy: DVQLQESGPGLVKPSQSLSLTCTVTGYSITSDYAWNWIRQFPGNKLEWMGYISYSGYTNYNPSLESRISVTRDTSKNQFFLQLNSVTTEDTATYYCAREVGLRLGWFAYWGQGTLVAVSAAKTTAPSVYPLAPVCGDTTGSSVTLGCLVKGYFPEPVTLTWNSGSLSSGVHTFPAVLQSDLYTLSSSVTVTSSTWPSQSITCNVAHPASSTKVDKKIEPRGPTIKPCPPCKCPAPNLLGGPSVFIFPPKIKDVLMISLSPIVTCVVVDVSEDDPDVQISWFVNNVEVHTAQTQTHREDYNSTLRVVSALPIQHQDWMSGKEFKCKVNNKDLPAPIERTISKPKGSVRAPQVYVLPPPEEEMTKKQVTLTCMVTDFMPEDIYVEWTNNGKTELNYKNTEPVLDSDGSYFMYSKLRVEKKNWVERNSYSCSVVHEGLHNHHTTKSFSRTPGK
light: SIVMTQTPKFLLISAGDRVTITCKASQSVNNDVAWYQQKPGQSPKLLIYYASNRYTGVPDHFTGSGYGTDFTFTISTVQAEDLAVYFCQQHYSSPWTFGGGTKLEFKRADAAPTVSIFPPSSEQLTSGGASVVCFLNNFYPKDINVKWKIDGSERQNGVLNSWTDQDSKDSTYSMSSTLTLTKDEYERHNSYTCEATHKTSTSPIVKSFNRNEC
notes: also called murine m40F5 antibody; murine 40F5
[3]
  binding result: no binding (tested: 10^4 ng/ml)
[4]
  EC50 (read off the curve): ~20 ng/mL
[5]
  binding result: no binding (tested: 10^4 ng/ml)
[6]
  EC50 (read off the curve): ~5 ng/mL
[7]
  binding result: no binding (tested: 10^4 ng/ml)
[8]
  EC50 (read off the curve): ~30 ng/mL
[9]
  EC50 (read off the curve): ~20 ng/mL
[10]
  EC50 (read off the curve): ~20 ng/mL

B3: bispecific antibody CD16A×B7H6 (bispecific antibody, human IgG1, L234A L235A)
chain 1: not shown
chain 2: DIVLTQTPLSLSVTPGQPASISCKASQSVDYDGDSYMNWYLQKPGQPPQLLIYAASTLHSGIPDRFSGSGSGTDFTLKISRVEAEDVGVYYCQQSKEDPRTFGQGTKLEIKGGGGSGGGGSGGGGSEVQLVQSGAEVKKPGASVKVSCKASGYTFTDYNMDWVRQAPGQGLEWIGDINPNNGGTLYNQKFRGRVTLTVDTSISTAYMELSRLRSDDTAVYYCARSEVFYGNYADYWGQGTTVTVSSEPKSCDKTHTCPPCPAPEAAGGPSVFLFPPKPKDTLMISRTPEVTCVVVDVSHEDPEVKFNWYVDGVEVHNAKTKPREEQYNSTYRVVSVLTVLHQDWLNGKEYKCKVSNKALPAPIEKTISKAKGQPREPQVCTLPPSREEMTKNQVSLSCAVKGFYPSDIAVEWESNGQPENNYKTTPPVLDSDGSFFLVSKLTVDKSRWQQGNVFSCSVMHEALHNHYTQKSLSLSPGK
notes: also called CD16A×B7H6 bispecific antibody
[11]
  EC50 (read off the curve): ~5 ng/mL
[12]
  EC50 (read off the curve): ~50 ng/mL

Reference: patent US20250297012A1 (HEFEI TG IMMUNOPHARMA, published 2025)
